Test results as given in patent publication US20220251157A1 (MAYO FOUNDATION FOR MEDICAL EDUCATION AND RESEARCH, published 2022).
Positions of bridges follow the written chain, without caps; N, C: chain ends. No end group written: not given here.

Legend:
12p9a = target: T1, 12p9a (disulfide 1-9; also: displayed on phage); test: phage display panning (Ph.D.-C7C) on immobilized antibody, bound phage eluted; 11x clones
T1 peptide: CHQTEKLTC
Description: (§1) A phage display system (Ph.D.-C7C Peptide Library Kit, New England Biolabs) was used to select 7-mer peptides in a cysteine loop for either hIgM12 or hIgM22. Briefly, a random peptide bacteriophage library was panned against immobilized antibody. Unbound bacteriophage was washed away, and bound bacteriophage was eluted, regrown and re-panned against the antibody. Multiple (three to seven) rounds of panning led to development of a peptide consensus sequence for each antibody. Two similar consensus sequences were identified for hIgM22, while one consensus sequence was identified for hIgM12 (Table 1).

12p4 = target: T2, 12p4 (disulfide 1-9; also: displayed on phage); test: phage display panning (Ph.D.-C7C) on immobilized antibody, bound phage eluted; 1x clone
T2 construct: one clone only
T2 peptide: CARNSTPPC
Description: as §1

B1: B7-DC XAb (antibody)
light: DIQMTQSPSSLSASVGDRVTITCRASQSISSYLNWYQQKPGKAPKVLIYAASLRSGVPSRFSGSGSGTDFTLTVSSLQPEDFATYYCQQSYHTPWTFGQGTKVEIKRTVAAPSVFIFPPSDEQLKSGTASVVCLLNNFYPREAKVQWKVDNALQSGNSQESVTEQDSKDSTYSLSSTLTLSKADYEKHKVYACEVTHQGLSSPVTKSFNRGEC
heavy: QVQLQESGPGLLKPSETLSLTCTVSGGSVSLYYWSWIRQSPGKEPEWIGYIYSSGSTDYNPSLRSRVTISLDTSNNRFSLNLRSVTAADTAVYWCARSASIRGWFDPWGQGTLVTVSSGSASAPTLFPLVSCENSPSDTSSVAVGCLAQDFLPDSITFSWKYKNNSDISSTRGFPSVLRGGKYAATSQVLLPSKDVMQGTDEHVVCKVQHPNGNKEKNVPLPVIAELPPKVSVFVPPRDGFFGNPRKSKLICQATGFSPRQIQVSWLREGKQVGSGVTTDQVQAEAKESGPTTYKVTSTLTIKESDWLSQSMFTCRVDHRGLTFQQNASSMCVPDQDTAIRVFAIPPSFASIFLTKSTKLTCLVTDLTTYDSVTISWTRQNGEAVKTHTNISESHPNATFSAVGEASICEDDWNSGERFTCTVTHTDLPSPLKQTISRPKGVALHRPDVYLLPPAREQLNLRESATITCLVTGFSPADVFVQWMQRGQPLSPEKYVTSAPMPEPQAPGRYFAHSILTVSEEEWNTGETYTCVVAHEALPNRVTERTVDKSTGKPTLYNVSLVMSDTAGTCY
notes: Human monoclonal IgM from a Waldenstrom's macroglobulinemia patient; J chain not described; Used at 10 ug/ml; also called hIgM12; sHIgM12
12p9a
  binding result: binds
12p4
  binding result: binds
